# Measurements from patent publication US20100297623A1 (COUNCIL OF THE QUEENSLAND INSTITUTE OF MEDICAL RESEARCH, published 2010).
# B1: human ssDNA binding protein 1 (hSSB1) (other)
# chain: MTTETFVKDIKPGLKNLNLIFIVLETGRVTKTKDGHEVRTCKVADKTGSINISVWDDVGNLIQPGDIIRLTKGYASVFKGCLTLYTGRGGDLQKIGEFCMVYSEVPNFSEPNPEYSTQQAPNKAVQNDSNPSASQPTTGPSAASPASENQNGNGLSAPPGPGGGPHPPHTPSHPPSTRITRSQPNHTPAGPPGPSSNPVSNGKETRRSSKR
# notes: also called human SSB1
# Biological target: the molecule itself
# Assay: gel filtration (self-association)
protein,measurement,value
B1,binding result,binds
